Target: T1, human IL-4 receptor alpha chain (Interleukin-4 receptor subunit alpha, Uniprot #P24394, SEQ ID NO: 12) (human, UniProt P24394 26-232, limits assumed)
T1 construct: also called IL-4RA; human IL-4RA
T1 sequence: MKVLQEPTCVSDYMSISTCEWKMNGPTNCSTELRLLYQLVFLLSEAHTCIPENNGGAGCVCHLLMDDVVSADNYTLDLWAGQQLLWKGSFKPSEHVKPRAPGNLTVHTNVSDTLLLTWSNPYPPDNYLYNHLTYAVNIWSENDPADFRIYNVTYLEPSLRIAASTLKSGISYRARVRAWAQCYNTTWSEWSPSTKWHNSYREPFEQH
Assay: method not stated; target IL-4RA implied by the text

B1: IL-4 double mutant IL-4 (R121D, Y124D) (ligand, UniProt P05112 25-153, looked up)
chain: HKCDITLQEIIKTLNSLTEQKTLCTELTVTDIFAASKNTTEKETFCRAATVLRQFYSHHEKDTRCLGATAQQFHRHKQLIRFLKRLDRNLWGLAGLNSCPVKEANQSTLENFLERLKTIMDEKDSKCSS
notes: they probably count on mature IL-4, not on the precursor entry; also called IL-4 mutant (R121D, Y124D); IL-4 mutant
  Kd: 154 pM
  koff: 0.0029 s⁻¹
  kon: 1.9e+07 M⁻¹ s⁻¹

Source: patent US20170112900A1 (Pieris, published 2017)
